The results in this text go back to PMC4705668.

This series has as its target 111p (modern human L1Pa1 ORF1p) (Homo sapiens, UniProt Q9UN81 1-338). The series is described as follows: filter binding; 0.05 M NaCl, 37 C; the three proteins indistinguishable; Filter binding: 20 mM Tris, 10% glycerol, 0.5 mM MgCl2, 0.1 mM DTT, 100 ug/ml BSA, 0.05 M NaCl, 37 C 1 h, 0.1 nM DNA; cross-linking: 20 mM Hepes pH 7.5, 10% gly.

Chain of 111p (modern human L1Pa1 ORF1p) (Q9UN81 whole entry): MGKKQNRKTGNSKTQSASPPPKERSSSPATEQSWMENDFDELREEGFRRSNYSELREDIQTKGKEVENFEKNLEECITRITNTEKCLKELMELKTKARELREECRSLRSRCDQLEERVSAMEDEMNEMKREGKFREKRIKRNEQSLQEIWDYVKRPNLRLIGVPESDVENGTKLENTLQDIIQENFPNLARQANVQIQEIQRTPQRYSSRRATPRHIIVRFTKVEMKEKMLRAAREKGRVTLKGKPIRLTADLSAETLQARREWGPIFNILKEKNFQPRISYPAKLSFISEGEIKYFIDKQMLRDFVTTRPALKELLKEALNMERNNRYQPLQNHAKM

B1: mismatched duplex d29 / d29_c-mm (dsDNA)
DNA 1: AAAAAGTACACAGTCTAACATCAACTCGC
DNA 2: GCGAGTTGACGTCAGACCGTGCACTTTTT
For B1, the binding result is listed as “binds”.
